From patent publication US20250361311A1 (Xencor, published 2025)

What was measured:
[1] = molecular target: T1, membrane-bound TL1A transiently expressed on CHO cells (human, UniProt O95150 1-251); assay: flow cytometry on CHO cells transiently transfected with TL1A, 1 hour at 4 C
T1 construct: whole, on cells
T1 sequence (looked up): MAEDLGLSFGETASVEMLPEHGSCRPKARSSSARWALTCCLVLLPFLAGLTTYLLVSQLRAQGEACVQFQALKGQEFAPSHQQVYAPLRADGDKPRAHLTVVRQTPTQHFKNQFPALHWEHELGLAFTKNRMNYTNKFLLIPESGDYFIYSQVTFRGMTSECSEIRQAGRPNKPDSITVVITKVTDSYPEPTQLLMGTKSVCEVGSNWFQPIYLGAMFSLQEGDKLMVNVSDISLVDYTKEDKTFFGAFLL
Method: Anti-TL1A mAbs were first screened for binding affinity to membrane-bound TL1A. CHO cells were transiently transfected to express TL1A, then were incubated with anti-TL1A mAbs for 1 hour at 4° C. and analyzed by flow cytometry. Hundreds of anti-TL1A mAbs were screened for binding, in order to determine which were the best binders to investigate further. […] The binding data is depicted in FIG. 16A.

[2] = molecular target: T2, soluble recombinant human TL1A trimer (human, UniProt O95150 72-251, limits assumed); assay: SPR at 37 C, soluble TL1A trimer up to 100 nM; apparent KD (KDapp)
T2 construct: also called active TL1A trimer; trimeric TL1A
T2 sequence (looked up): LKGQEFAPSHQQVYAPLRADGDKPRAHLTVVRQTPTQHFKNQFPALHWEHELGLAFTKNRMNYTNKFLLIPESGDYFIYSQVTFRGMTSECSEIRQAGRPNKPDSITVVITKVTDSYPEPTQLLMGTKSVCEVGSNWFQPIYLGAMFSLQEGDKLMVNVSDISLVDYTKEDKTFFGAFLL
Method: In addition to measuring binding to scTL1A, binding to increasing concentrations of soluble recombinant human TL1A trimer (up to 100 nM) was measured at 37C via surface plasmon resonance.

[3] = molecular target: LIGHT (UniProt O43557 74-240, limits assumed); assay: BLI (Octet RH96, FIG. 22)
[4] = molecular target: T3, FasL (UniProt P48023 134-281, limits assumed); assay: BLI (Octet RH96, FIG. 22)
T3 sequence (looked up): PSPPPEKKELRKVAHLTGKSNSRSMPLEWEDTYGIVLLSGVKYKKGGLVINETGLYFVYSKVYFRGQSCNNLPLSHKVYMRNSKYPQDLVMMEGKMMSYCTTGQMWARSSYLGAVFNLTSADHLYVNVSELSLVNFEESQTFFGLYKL

[5] = molecular target: TRAIL (UniProt P50591 114-281); assay: BLI (Octet RH96, FIG. 22)
TRAIL, sequence (P50591 114-281 limits assumed): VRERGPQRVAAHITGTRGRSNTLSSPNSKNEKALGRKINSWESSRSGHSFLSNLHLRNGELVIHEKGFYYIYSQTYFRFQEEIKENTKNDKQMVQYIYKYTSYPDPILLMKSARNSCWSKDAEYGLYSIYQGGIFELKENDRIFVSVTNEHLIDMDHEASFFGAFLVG

LIGHT, sequence (O43557 74-240 limits assumed): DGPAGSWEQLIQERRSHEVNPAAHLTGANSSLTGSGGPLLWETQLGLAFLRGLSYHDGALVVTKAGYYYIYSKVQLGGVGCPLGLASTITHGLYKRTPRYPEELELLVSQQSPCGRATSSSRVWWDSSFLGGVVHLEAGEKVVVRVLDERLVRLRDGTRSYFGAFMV

B1: XENP47942 70416_041[TL1a]_H1L1_Fab IgG1_PVA_/S267K/M428L/N434S (antibody, V domains shown)
VH: QVQLVQSGAEVKKPGASVKVSCKVSGFSVTSYNVHWVRQAPGQGLEWMGVMWSGGNTDYNSKFQGRVTMTRDTSTNTVYMELSSLRSEDTAVYYCARAGRYYHDSNYYWDFPYWGQGTLVTVSS
VL: DIQMTQSPSSVSASVGDRVTITCRASEDIYSGLAWYQQKPGKSPKLLIYGASSLQDGVPSRFSGSGSGTDYTLTISSLQPEDFATYFCQEGLKSPYTFGAGTKLEIKR
notes: also called XmAb942; Xmab942
With B1 the EC50 [1] was 1100 pM, the Kd [2] was 8 to 10 pM and the binding result [3] was “no binding”. B1: no binding [4]; no binding [5].
